± gives the uncertainty stated by the source.

B1: Transitional endoplasmic reticulum ATPase, residues 26 to 106; numbered along this chain, P55072 (parent)
chain: LIVDEAINEDNSVVSLSQPKMDELQLFRGDTVLLKGKKRREAVCIVLSDDTCSDEKIRMNRVVRNNLRVRLGDVISIQPCP

In the series the parent is B1. In words: abundance fitness (aPCA) (normalised: wild type 0, dead -1); higher = more abundant; growth selection in yeast, the domain comes from the species named. Particulars: Homo sapiens.
For the variant C52Y, the abundance fitness was -0.439 ± 0.12.

Turning to C52A, the abundance fitness was -0.253 ± 0.069.

Turning to C52R, the abundance fitness is -0.192 ± 0.059.

With C52L, the abundance fitness is 0.018 ± 0.059.

As to C52D, the abundance fitness is -0.433 ± 0.11.

As for M59S, the abundance fitness is -0.817 ± 0.13.

Consider M59F, for which the abundance fitness was -0.333 ± 0.11.

Consider R28P, for which the abundance fitness is -0.012 ± 0.068.

R28T: the abundance fitness was 0.034 ± 0.069.

On to S76G, for which the abundance fitness was -0.021 ± 0.043.

S76Y: the abundance fitness was -0.107 ± 0.12.

Take S76E: the abundance fitness was -0.096 ± 0.088.

With S76R, the abundance fitness was -0.046 ± 0.044.

Regarding S76L, the abundance fitness was -0.112 ± 0.06.

For I7Y, the abundance fitness is -0.238 ± 0.14.

In the case of I7L, the abundance fitness amounted to 0.048 ± 0.05.

As to I7M, the abundance fitness was determined as 0.039 ± 0.066.

For the variant I7S, the abundance fitness is -0.048 ± 0.061.

Regarding I7N, the abundance fitness was -0.193 ± 0.3.

For the variant I7W, the abundance fitness was -0.003 ± 0.056.

As for I7C, the abundance fitness was -0.021 ± 0.1.

As for N66F, the abundance fitness was -0.263 ± 0.083.

Take N66V: the abundance fitness was -0.104 ± 0.06.

As to N66K, the abundance fitness is 0.086 ± 0.091.

For P19I, the abundance fitness worked out at 0.088 ± 0.12.

Regarding P19V, the abundance fitness worked out at 0.047 ± 0.054.

In the case of R64I, the abundance fitness is -0.061 ± 0.17.

Regarding R64C, the abundance fitness was -0.227 ± 0.12.

For R64L, the abundance fitness is -0.044 ± 0.056.

Regarding R64F, the abundance fitness was -0.212 ± 0.23.

With R64K, the abundance fitness is -0.365 ± 0.11.

On to R64V, for which the abundance fitness is -0.321 ± 0.065.

On to R64A, for which the abundance fitness was -0.023 ± 0.055.

Turning to R64S, the abundance fitness is -0.303 ± 0.072.

Regarding R64N, the abundance fitness is -0.458 ± 0.17.

As for S17K, the abundance fitness was -0.361 ± 0.097.

Take S17Y: the abundance fitness is -0.806 ± 0.21.

Regarding E23Q, the abundance fitness was -0.104 ± 0.11.

For E23P, the abundance fitness was -1.16 ± 0.32.

As to E23H, the abundance fitness is -0.2 ± 0.21.

Turning to L67M, the abundance fitness was -0.247 ± 0.073.

For the variant L67T, the abundance fitness is -0.693 ± 0.25.

In the case of L67R, the abundance fitness is -0.956 ± 0.12.

With L67S, the abundance fitness is -0.893 ± 0.12.

Consider K38G, for which the abundance fitness was found to be 0.025 ± 0.067.

Take K38L: the abundance fitness was found to be 0.019 ± 0.081.

Take K38W: the abundance fitness is -0.011 ± 0.14.

In the case of E55Y, the abundance fitness is -0.029 ± 0.099.

As to V62F, the abundance fitness is -0.023 ± 0.12.

For V62I, the abundance fitness was 0.011 ± 0.13.

With E5G, the abundance fitness was -0.032 ± 0.051.

As to E5M, the abundance fitness came out at 0.042 ± 0.063.

Take E5D: the abundance fitness is 0.003 ± 0.11.

On to E5Y, for which the abundance fitness turned out to be 0.048 ± 0.089.

For E5Q, the abundance fitness is -0.124 ± 0.12.

As for E5I, the abundance fitness was -0.045 ± 0.048.

For E5L, the abundance fitness is -0.107 ± 0.041.

For the variant L47Y, the abundance fitness was -0.087 ± 0.16.

Turning to L47W, the abundance fitness was -0.07 ± 0.073.

With L47H, the abundance fitness stood at 0.126 ± 0.12.

As for L47R, the abundance fitness was -0.01 ± 0.054.

Take L47C: the abundance fitness is -0.05 ± 0.087.

For N60V, the abundance fitness is -0.418 ± 0.071.

N60L: the abundance fitness is -0.756 ± 0.13.

Regarding N60Y, the abundance fitness was -0.811 ± 0.39.

As to N60F, the abundance fitness is -0.889 ± 0.16.

On to N60R, for which the abundance fitness was -0.325 ± 0.073.

For the variant N60C, the abundance fitness was -0.182 ± 0.16.

For N60S, the abundance fitness was 0.085 ± 0.074.

In the case of F27D, the abundance fitness came out at 0.069 ± 0.1.

As to F27E, the abundance fitness was 0.095 ± 0.081.

Turning to F27S, the abundance fitness worked out at 0.085 ± 0.045.

Turning to E9T, the abundance fitness was -0.107 ± 0.076.

Turning to E9W, the abundance fitness was -0.098 ± 0.049.

For E9Q, the abundance fitness was -0.127 ± 0.12.

For E9K, the abundance fitness is -0.216 ± 0.079.

As to E9L, the abundance fitness was -0.087 ± 0.044.

For E9H, the abundance fitness is -0.109 ± 0.11.

Turning to D54C, the abundance fitness is -0.089 ± 0.11.

For D54T, the abundance fitness amounted to 0.218 ± 0.095.

D54I: the abundance fitness was -0.106 ± 0.14.

Regarding D54A, the abundance fitness is -0.076 ± 0.058.

On to I77F, for which the abundance fitness is -0.259 ± 0.11.

With I77M, the abundance fitness is -0.097 ± 0.078.

On to I77S, for which the abundance fitness is -0.914 ± 0.19.

As to I77R, the abundance fitness is -0.91 ± 0.12.

Consider I77L, for which the abundance fitness was 0.013 ± 0.057.

For I77C, the abundance fitness was -0.074 ± 0.2.

On to E41D, for which the abundance fitness was -0.125 ± 0.082.

Consider E41C, for which the abundance fitness was -0.399 ± 0.1.

As for D73Q, the abundance fitness was 0.004 ± 0.096.

D73T: the abundance fitness was -0.252 ± 0.097.

Regarding D73M, the abundance fitness is -0.391 ± 0.11.

Consider D73K, for which the abundance fitness was -0.309 ± 0.14.

On to N65A, for which the abundance fitness was -0.026 ± 0.067.

In the case of N65D, the abundance fitness is 0.017 ± 0.11.

On to N65E, for which the abundance fitness is -0.02 ± 0.17.

As for T51R, the abundance fitness was -0.086 ± 0.062.

Turning to T51L, the abundance fitness was -0.117 ± 0.063.

Take T51I: the abundance fitness was -0.19 ± 0.11.

T51P: the abundance fitness was -0.306 ± 0.16.

On to T51V, for which the abundance fitness was -0.145 ± 0.052.

Regarding T51D, the abundance fitness turned out to be 0.026 ± 0.094.

With D30M, the abundance fitness was -0.047 ± 0.1.

Regarding D30A, the abundance fitness is 0.005 ± 0.063.

In the case of D30H, the abundance fitness is -0.11 ± 0.12.

Turning to D30R, the abundance fitness was -0.258 ± 0.05.

As to D30T, the abundance fitness was -0.051 ± 0.068.

As to D30C, the abundance fitness was 0.035 ± 0.12.

For D30N, the abundance fitness is -0.176 ± 0.088.

In the case of V32S, the abundance fitness was -0.854 ± 0.11.

In the case of V32E, the abundance fitness is -1.05 ± 0.33.

For the variant V32T, the abundance fitness is -0.827 ± 0.19.

Regarding P79W, the abundance fitness was -0.304 ± 0.093.

P79C: the abundance fitness is -0.099 ± 0.096.

P79L: the abundance fitness was -0.044 ± 0.035.

Consider P79F, for which the abundance fitness was -0.012 ± 0.088.

As to P79S, the abundance fitness was -0.016 ± 0.069.

As for P79H, the abundance fitness was -0.037 ± 0.11.

In the case of P79M, the abundance fitness was -0.076 ± 0.11.

As for N11L, the abundance fitness was -0.007 ± 0.053.

For the variant N11K, the abundance fitness was -0.084 ± 0.12.

For N11F, the abundance fitness is -0.208 ± 0.18.

Take N11R: the abundance fitness is -0.042 ± 0.038.

On to N11W, for which the abundance fitness was -0.26 ± 0.069.

For the variant K56W, the abundance fitness was -0.35 ± 0.055.

With K56L, the abundance fitness was -0.047 ± 0.055.

As for K56H, the abundance fitness was -0.183 ± 0.26.

Take K56F: the abundance fitness was -0.127 ± 0.1.

Consider K56R, for which the abundance fitness was -0.012 ± 0.068.

On to K56V, for which the abundance fitness is -0.021 ± 0.063.

In the case of V3D, the abundance fitness is -0.529 ± 0.41.

With V3M, the abundance fitness was -0.194 ± 0.093.

Consider V3E, for which the abundance fitness was -0.809 ± 0.17.

As for V3R, the abundance fitness is -0.992 ± 0.15.

For Q18N, the abundance fitness is -0.461 ± 0.32.

Consider Q18Y, for which the abundance fitness was -0.23 ± 0.15.

Q18C: the abundance fitness is -0.074 ± 0.067.

As to Q18I, the abundance fitness is -0.088 ± 0.076.

On to A6S, for which the abundance fitness came out at 0.029 ± 0.061.

Take A6I: the abundance fitness worked out at 0.002 ± 0.12.

Regarding A6V, the abundance fitness is -0.133 ± 0.037.

In the case of A6F, the abundance fitness was 0.093 ± 0.085.

As for T31A, the abundance fitness was -0.089 ± 0.038.

As for R68N, the abundance fitness was -0.123 ± 0.14.

On to R68F, for which the abundance fitness is -0.165 ± 0.14.

Consider R68I, for which the abundance fitness is -0.588 ± 0.21.

R68S: the abundance fitness stood at 0.068 ± 0.073.

As for R68D, the abundance fitness is -0.064 ± 0.12.

As to M21Q, the abundance fitness is -0.752 ± 0.18.

On to M21K, for which the abundance fitness was -0.881 ± 0.17.

M21H: the abundance fitness was -1.21 ± 0.41.

In the case of K35S, the abundance fitness worked out at 0.031 ± 0.074.

With K35T, the abundance fitness came to 0.117 ± 0.094.

K35A: the abundance fitness is -0.096 ± 0.066.

Regarding K35M, the abundance fitness is -0.02 ± 0.082.

Turning to K35E, the abundance fitness is -0.116 ± 0.16.

Regarding S53F, the abundance fitness is -0.032 ± 0.069.

On to S53Q, for which the abundance fitness worked out at 0.033 ± 0.11.

Take I75W: the abundance fitness is -1.04 ± 0.37.

As for I75D, the abundance fitness is -0.863 ± 0.41.

Turning to I75N, the abundance fitness was -0.842 ± 0.31.

On to I75T, for which the abundance fitness was -0.495 ± 0.14.

Regarding G36C, the abundance fitness amounted to 0.015 ± 0.083.

As for G36R, the abundance fitness was -0.37 ± 0.056.

Turning to G36A, the abundance fitness was -0.041 ± 0.036.

As to G36S, the abundance fitness is -0.026 ± 0.07.
